Target: 6His-CspA (Xanthomonas oryzae pv. oryzae PXO99A, UniProt A0ACG7R7F9 8-71)
Assay: EMSA
Conditions: protein: recombinant; tags: N-terminal His6 (pET-30a-c(+)); label: 3' biotin

B1: PXO_RS11830 promoter probe (dsDNA)
DNA 1: CTGGCGGACGCCAATAGCGGTTGAATGGGCAAGAGGATCT
DNA 2: AGATCCTCTTGCCCATTCAACCGCTATTGGCGTCCGCCAG
  binding result: binds

B2: PXO_RS01060 promoter probe (dsDNA)
DNA 1: ATGATGTCGCCCAATCCCTGACCAGATCGATGCGCATGCA
DNA 2: TGCATGCGCATCGATCTGGTCAGGGATTGGGCGACATCAT
  binding result: binds

Reference: publication PMC6637868
